The target of data set [1] is MOR (Mus musculus, UniProt P42866). Nature of the data set: Whole body biodistribution by cryo-macrotome fluorescence imaging, wildtype vs MOR knockout. As to conditions: 1 hour after IV injection.
Data set [2] has as its system CHO-K1 cells expressing MOR. Kind of data set: Wide field fluorescence microscopy of DRM-800 binding and internalization. It counts as cell-based, Chinese hamster. The text has this: Cells were visualized using a Zeiss LSM 800 inverted microscope with a Generation III 750 nm laser light source (Lumencor, Inc., Beaverton, OR) and a Zeiss Plan-Apochromat 20×/0.8 M27 objective lens. The filters used for imaging DRM-800 were 740 nm for excitation, 770 nm dichroic and 780 nm longpass for emission (Filter Set 49037, Chroma Technology Corp., Bellows Falls, VT). Acquisition of micrographs was accomplished using a digital CMOS Camera (C114400-22CU, Hamamatsu Photonics K.K.) with a 2×2 pixel binning. Images were processed in ImageJ FIJI, windowed and leveled identically across samples, and then adjusted step-wise until cells are visible, with each image being shown for transparency.
Wide field fluorescence microscopy (Fig. 3) was used to study the binding and internalization of DRM-800 to stably expressed MORs in the membrane of transfected CHO-K1 cells.

Data set [3] can be described thus: Plasma pharmacokinetics by direct carotid artery fluorescence imaging after intravenous injection. As to conditions: for Plasma half-life (time in which the concentration of dye is 50% of initial) / Distribution (α) half-life / Elimination (β) half-life: IV; for Distribution (α) half-life / Elimination (β) half-life: biexponential; for Distribution (α) half-life / Elimination (β) half-life / Distribution rate, b / Elimination rate, d: value (95% CI); for Distribution rate, b / Elimination rate, d: biexponential fit.

The mark [4] stands for this setting: MOR-knockout mice, n = 4, 1 nmol IV tail vein coinjection with IRDye700DX.
Where [5] appears, read: wildtype mice, n = 4, 1 nmol IV tail vein coinjection with IRDye700DX, imaged 1 hour.
[6] abbreviates: rate constants did not differ between groups (wildtype and MOR-knockout mice), 1 nmol IV coinjection with DRM-800.

Data on two molecules can be found in article doi:10.1101/2023.06.19.545627v1, “Pharmacokinetic profile of the synthetic mu-opioid receptor agonist [Lys7]Dermorphin-IRDye®800CW and its feasibility as a biomarker for opioid use disorder” (bioRxiv, 2023).

Chain of MOR (P42866 whole entry, looked up): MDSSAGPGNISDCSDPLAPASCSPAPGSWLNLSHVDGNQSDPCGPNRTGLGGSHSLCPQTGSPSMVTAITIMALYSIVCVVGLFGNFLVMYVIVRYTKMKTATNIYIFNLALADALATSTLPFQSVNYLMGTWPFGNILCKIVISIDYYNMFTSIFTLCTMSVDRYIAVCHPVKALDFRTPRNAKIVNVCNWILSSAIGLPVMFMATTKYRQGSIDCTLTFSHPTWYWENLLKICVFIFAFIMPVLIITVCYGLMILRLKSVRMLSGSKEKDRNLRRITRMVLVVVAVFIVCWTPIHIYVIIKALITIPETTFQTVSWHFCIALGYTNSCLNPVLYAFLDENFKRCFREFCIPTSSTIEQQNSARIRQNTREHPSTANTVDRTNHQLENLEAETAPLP

For `C[C@@H](NC(=O)[C@@H](N)Cc1ccc(O)cc1)C(=O)N[C@@H](Cc1ccccc1)C(=O)NCC(=O)N[C@@H](Cc1ccc(O)cc1)C(=O)N1CCC[C@H]1C(=O)N[C@@H](CCCCN)C(=O)N[C@@H](CSC1CC(=O)N(CCNC(=O)CCCCC[N+]2=C(/C=C/C3=C(Oc4ccc(S(=O)(=O)O)cc4)C(=C/C=C4/N(CCCCS(=O)(=O)O)c5ccc(S(=O)(=O)O)cc5C4(C)C)/CCC3)C(C)(C)c3cc(S(=O)(=O)[O-])ccc32)C1=O)C(N)=O` (stereo partly drawn) [DRM-800, IRDye®800CW-labelled YdAFGYPKC-NH2], in data set [1] (cryo-macrotome ROI analysis), the “Fluorescence in small and large intestine, wildtype compared with knockout” value is “elevated levels of DRM-800 compared with knockout mice”; the “Ratio of average fluorescence wildtype vs knockout, dorsal root ganglion” value worked out at 1.8 ± 0.05; the “Ratio of average fluorescence wildtype vs knockout, left spiral ganglion” value was 2.2 ± 0.2; the “Ratio of average fluorescence wildtype vs knockout, right spiral ganglion” value is given as 2.9 ± 0.3. Moreover, in data set [1] (cryo-macrotome ROI analysis), the “Ratio of average fluorescence wildtype vs knockout, trigeminal ganglion” value worked out at 3.1 ± 0.2. In addition, in data set [1] (either group of mice (wildtype, knockout)), the “Fluorescence signal in brain” value was “did not observe any appreciable signal”. The “Binding and internalization seen by fluorescence microscopy” value in data set [2] (2 nM and 25 nM, 35°C, 30 min of incubation, no sucrose) is recorded as “plasma membrane fluorescence as well as fluorescent puncta of high intensity in the perinuclear region of the cytoplasm were observable”. Moreover, the “Binding and internalization seen by fluorescence microscopy with internalization inhibited” value in data set [2] (4C with addition of sucrose (0.35 M)) is “fluorescence was distinctly observed at the plasma membrane and intracellular puncta was greatly reduced”. For the same molecule, in data set [3] (MOR knockout mice), the “Plasma half-life (time in which the concentration of dye is 50% of initial)” value is 12.6 min, the “Distribution (α) half-life” value was 6.2 (4.9 - 8.6) min and the “Elimination (β) half-life” value is given as 45 (33–68) min. Further, in data set [3] (setting [4]), the “Distribution rate, b” value is 0.11 (0.08-0.14) min^−1 and the “Elimination rate, d” value is given as 0.0155 (0.0102 - 0.0202) min^−1. Moreover, the “Plasma half-life following intravenous injection” value in data set [3] (mice (abstract summary over wildtype and knockout)) is 8 to 12 min. Moreover, in data set [3] (wildtype mice), the “Plasma half-life (time in which the concentration of dye is 50% of initial)” value is listed as 7.95 min, the “Distribution (α) half-life” value is recorded as 3.3 (3.1-3.5) min and the “Elimination (β) half-life” value is reported as 70.8 (67.2 - 74.8) min. For the same molecule, in data set [3] (setting [5]), the “Distribution rate, b” value is 0.211 (0.197 - 0.224) min^-1 and the “Elimination rate, d” value is 0.0097 (0.0093 - 0.0103) min^-1.
Regarding “IRDye®700DX [IRD700, reference compound]”, in data set [3] (setting [6]), the “Distribution rate, b” value was 0.42 (0.36 - 0.47) min^−1 and the “Elimination rate, d” value was 0.054 (0.051 - 0.057) min^−1.
